Drawing on patent publication US20070259336A1, this text covers percent competition for 1 molecule.

Assay [1] concerns the target serum 12, head and neck cancer patient (Table 1) (human). Briefly: 5 ug MBP competitor preincubated with serum 12, then IP of Ruc-p53.
The target of assay [2] is serum 15, head and neck cancer patient (Table 1) (human). As to the kind of experiment: 5 ug MBP competitor preincubated with serum 15, then IP of Ruc-p53.
Assay [3] has as its target serum 33, colon cancer patient (Table 1) (human). As to the kind of experiment: 5 ug MBP competitor preincubated with serum 33, then IP of Ruc-p53.
Assay [4] deals with serum 34, colon cancer patient (Table 1) (human). Briefly: 5 ug MBP competitor preincubated with serum 34, then IP of Ruc-p53.
Assay [5] concerns the target serum 22, breast cancer patient (Table 1) (human). Briefly: 5 ug MBP competitor preincubated with serum 22, then IP of Ruc-Smad4.
The target of assay [6] is serum 25, breast cancer patient (Table 1) (human). As to the kind of experiment: 5 ug MBP competitor preincubated with serum 25, then IP of Ruc-c-Myc.
The target of assay [7] is serum 27, breast cancer patient (Table 1) (human). As to the kind of experiment: 5 ug MBP competitor preincubated with serum 27, then IP of Ruc-K-Ras.
Assay [8] addresses serum 32, colon cancer patient (Table 1) (human). As to the kind of experiment: 5 ug MBP competitor preincubated with serum 32, then IP of Ruc-K-Ras.
Assay [9] has as its target serum 34, colon cancer patient (Table 1) (human). As to the kind of experiment: 5 ug MBP competitor preincubated with serum 34, then IP of Ruc-K-Ras.
Assay [10] deals with serum 35, colon cancer patient (Table 1) (human). As to the kind of experiment: 5 ug MBP competitor preincubated with serum 35, then IP of Ruc-K-Ras.
Assay [11] concerns the target serum 36, colon cancer patient (Table 1) (human). Briefly: 5 ug MBP competitor preincubated with serum 36, then IP of Ruc-Smad4.
The target of assay [12] is serum 24, breast cancer patient (Table 1) (human). Briefly: 5 ug MBP competitor preincubated with serum 24, then IP of Ruc-β-catenin-Δ1.

B1: MBP fusion containing the SPEC2 cDNA (protein, UniProt Q9NRR3 1-84, looked up, not shown: large carriers)
chain: MSEFWLCFNCCIAEQPQPKRRRRIDRSMIGEPTNFVHTAHVGSGDLFSGMNSVSSIQNQMQSKGGYGGGMPANVQMQLVDTKAG
With B1, the percent competition in assay [1] amounted to 21%; in [2], 20%; in assay [3], 7%; in assay [4] it was 11%; in assay [5], 4%; in [6], 0%. Moreover, the percent competition was determined as 5% in assay [7]; 25% in assay [8]; 4% in [9]; 16% in assay [10]; 0% in assay [11]; 23% in assay [12].
